Here are results for 21 molecules from patent publication USRE47150 (Bayer, dated 2018).

Numbering of substitutions follows the chain as printed. Names and notes keep the numbering of the source.

T1: human tissue factor pathway inhibitor (TFPI) (human, UniProt P10646 29-304, limits assumed)
T1 construct: bought; also called hTFPI; human TFPI
T1 sequence (looked up): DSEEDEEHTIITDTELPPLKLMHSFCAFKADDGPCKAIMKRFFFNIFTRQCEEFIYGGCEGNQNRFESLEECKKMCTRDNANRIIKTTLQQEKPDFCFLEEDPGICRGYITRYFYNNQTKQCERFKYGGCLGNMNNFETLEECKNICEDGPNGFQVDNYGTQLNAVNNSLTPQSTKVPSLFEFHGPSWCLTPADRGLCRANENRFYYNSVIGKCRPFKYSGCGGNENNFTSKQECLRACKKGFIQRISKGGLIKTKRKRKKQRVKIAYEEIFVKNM

T2: mouse tissue factor pathway inhibitor (TFPI) (mouse, UniProt O54819 29-289, limits assumed)
T2 construct: bought; also called mTFPI; murine TFPI
T2 sequence (looked up): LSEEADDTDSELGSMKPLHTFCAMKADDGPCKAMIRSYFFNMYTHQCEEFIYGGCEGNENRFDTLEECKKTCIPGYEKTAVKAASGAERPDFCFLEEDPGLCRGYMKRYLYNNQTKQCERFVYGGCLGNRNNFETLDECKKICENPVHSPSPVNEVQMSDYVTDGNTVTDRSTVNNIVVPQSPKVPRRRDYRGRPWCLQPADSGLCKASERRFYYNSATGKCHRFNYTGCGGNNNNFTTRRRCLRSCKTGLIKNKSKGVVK

B1: 4B7 LC_S57Y (Fab, V domains shown)
VH: QVQLQQSGPGLVKPSQTLSLTCAISGDSVSSNSAAWSWIRQSPGRGLEWLGIIYKRSKWYNDYAVSVKSRITINPDTSKNQFSLQLNSVTPEDTAVYYCARWHSDKHWGFDYWGQGTLVTVSS
VL: DIVMTQSPLSLPVTPGEPASISCRSSQSLVFSDGNTYLNWYLQKPGQSPQLLIYKGYNRASGVPDRFSGSGSGTDFTLKISRVEAEDVGVYYCQQYDSYPLTFGQGTKVEIKR
B2: 4B7 LC_S61C (Fab, V domains shown)
VH: B1 VH
VL: B1 VL with Y57S, S61C
B3: 4B7 LC_Y37F (Fab, V domains shown)
VH: B1 VH
VL: B1 VL with Y37F, Y57S
B4: 2A8 HC_F104Y (Fab, V domains shown)
VH: QVQLVESGGGLVQPGGSLRLSCAASGFTFRSYGMSWVRQAPGKGLEWVSSIRGSSSSTYYADSVKGRFTISRDNSKNTLYLQMNSLRAEDTAVYYCARKYRYWYDYWGQGTLVTVSS
VL: DIELTQPPSVSVAPGQTARISCSGDNLRNYYAHWYQQKPGQAPVVVIYYDNNRPSGIPERFSGSNSGNTATLTISGTQAEDEADYYCQSWDDGVPVFGGGTKLTVLG
B5: 2A8 LC_D92T (Fab, V domains shown)
VH: B4 VH with Y104F
VL: B4 VL with D92T
B6: 2A8 LC_P54L (Fab, V domains shown)
VH: B4 VH with Y104F
VL: B4 VL with P54L
B7: 2A8 LC_N52G (Fab, V domains shown)
VH: B4 VH with Y104F
VL: B4 VL with N52G
B8: 2A8 HC_S35L (Fab, V domains shown)
VH: B4 VH with S35L, Y104F
VL: B4 VL
B9: 2A8 HC_G33K (Fab, V domains shown)
VH: B4 VH with G33K, Y104F
VL: B4 VL
B10: 2A8 HC_S54D (Fab, V domains shown)
VH: B4 VH with S54D, Y104F
VL: B4 VL
B11: 2A8 LC_D92S (Fab, V domains shown)
VH: B4 VH with Y104F
VL: B4 VL with D92S
B12: 2A8 HC_S55A (Fab, V domains shown)
VH: B4 VH with S55A, Y104F
VL: B4 VL
B13: 2A8 LC_D91R (Fab, V domains shown)
VH: B4 VH with Y104F
VL: B4 VL with D91R
B14: B32.5 (4B7 HC D62R+Y112D/LC D33F+N35I) (Fab, V domains shown)
VH: B1 VH with D62R, Y112D
VL: B1 VL with D33F, N35I, Y57S
B15: gB9.7 (4B7 HC Q1E+N32D+G44S+K55Y+D62R+Y112D/LC S32R+N35I) (Fab, V domains shown)
VH: B1 VH with Q1E, N32D, G44S, K55Y, D62R, Y112D
VL: B1 VL with S32R, N35I, Y57S
B16: B27.1 (4B7 HC N32D+D62R+Y112D/LC N35T+D97T) (Fab, V domains shown)
VH: B1 VH with N32D, D62R, Y112D
VL: B1 VL with N35T, Y57S, D97T
B17: B2.0 (4B7 HC N32D+D62R+Y112D/LC S32R+D33F+N35I+D97T) (Fab, V domains shown)
VH: B1 VH with N32D, D62R, Y112D
VL: B1 VL with S32R, D33F, N35I, Y57S, D97T
B18: gB9.7-IgG (4B7 HC N32D+G44S+K55Y+D62R+Y112D/LC S32R+N35I) (antibody, V domains shown)
VH: B1 VH with N32D, G44S, K55Y, D62R, Y112D
VL: B1 VL with S32R, N35I, Y57S
notes: IgG format by its name
B19: B18.5 (4B7 HC N32D+D62Q+Y112D/LC F31I+D33F+N35I) (Fab, V domains shown)
VH: B1 VH with N32D, D62Q, Y112D
VL: B1 VL with F31I, D33F, N35I, Y57S
B20: B9.7 (4B7 HC N32D+D62R+Y112D/LC S32R+N35I) (Fab, V domains shown)
VH: B1 VH with N32D, D62R, Y112D
VL: B1 VL with S32R, N35I, Y57S
B21: B41.2 (4B7 HC N32D+D62R+Y112D/LC S32R+D33F+N35I) (Fab, V domains shown)
VH: B1 VH with N32D, D62R, Y112D
VL: B1 VL with S32R, D33F, N35I, Y57S

One assay deals with T1, human tissue factor pathway inhibitor …. As to the kind of experiment: competitive ELISA.
B1 registered a variant/wild-type of 1.6 ratio.
On to B2, for which the variant/wild-type came to 3.1 ratio.
As to B3, the variant/wild-type was 3.6 ratio.

Another assay has the same target. Description: competitive ELISA. The source holds these as a separate data set. (In general: An ELISA detects its analyte on a solid surface through an enzyme-linked reagent.)
B4 yielded a variant/wild-type of 2 ratio.
On to B5, for which the variant/wild-type was determined as 2.6 ratio.
In the case of B6, the variant/wild-type stood at 5.3 ratio.
Same read-out and setting: the figure for B7 is 3.4 ratio; for B8 it is 1.7 ratio.
B9 had a variant/wild-type of 1.8 ratio.
B10: the variant/wild-type stood at 1.7 ratio.
With B11, the variant/wild-type worked out at 3.8 ratio.
In turn, B12 returned a variant/wild-type of 2 ratio.
The same measure, in the same setting: the figure for B13 is 3.1 ratio.

Another assay addresses T2, mouse tissue factor pathway inhibitor …. Description: competitive ELISA.
On to B4, for which the variant/wild-type came to 1.5 ratio.
In the case of B5, the variant/wild-type was determined as 1.2 ratio.
In the case of B6, the variant/wild-type is 2.7 ratio.
The molecule B7 displayed a variant/wild-type of 1.5 ratio.
The molecule B8 gave a variant/wild-type of 1.5 ratio.
Still for that read-out and setting: the figure for B9 is 0.7 ratio; for B10 it is 1.2 ratio; for B11 it is 2.6 ratio.
As to B12, the variant/wild-type turned out to be 1.2 ratio.
Same read-out and setting: under B13 stands 2 ratio.

The target in another assay is T1, human tissue factor pathway inhibitor …. Description: SPR, TFPI immobilized. In general terms: Surface plasmon resonance follows binding to a sensor surface in real time, without labels.
Consider B14, for which the KD fold improvement turned out to be 749 fold, the Kd turned out to be 0.0148 nM, the koff came out at 3.19e-05 s⁻¹ and the kon amounted to 2.15e+06 M⁻¹ s⁻¹.
Consider B15, for which the KD fold improvement turned out to be 1090 fold, binding was put at a Kd of 0.0102 nM, the koff came to 9.55e-06 s⁻¹ and the kon worked out at 938000 M⁻¹ s⁻¹.
For B16 the same measures were 875 fold, 0.0127 nM, 3.53e-05 s⁻¹ and 2.78e+06 M⁻¹ s⁻¹.
On the same counts, the results for B17 are 2180 fold, 0.0051 nM, 3.81e-05 s⁻¹ and 7.46e+06 M⁻¹ s⁻¹.
For B18 the same measures were 1450 fold, 0.00765 nM, 1.56e-05 s⁻¹ and 2.03e+06 M⁻¹ s⁻¹.
With B19, the KD fold improvement was 428 fold, binding was characterised by a dissociation constant (Kd) of 0.026 nM, the koff came out at 3.18e-05 s⁻¹ and the kon was determined as 1.23e+06 M⁻¹ s⁻¹.
With B20, the KD fold improvement is 1270 fold, the Kd was 0.00878 nM, the koff worked out at 2.61e-05 s⁻¹ and the kon amounted to 2.97e+06 M⁻¹ s⁻¹.
Take B21: the KD fold improvement was found to be 1550 fold, the Kd is 0.00716 nM, the koff came to 2.47e-05 s⁻¹ and the kon worked out at 3.46e+06 M⁻¹ s⁻¹.

The next assay shares this target. As to the kind of experiment: competitive ELISA. The source holds these as a separate data set.
With B14, the variant/HC_D62R amounted to 20.3 ratio.
B15 came in with a variant/HC_D62R of 22.6 ratio.
On the same count and under the same terms, under B16 stands 26 ratio.
On to B17, for which the variant/HC_D62R was determined as 26.2 ratio.
The same measure, in the same setting: under B19 stands 22.4 ratio.
The same measure, in the same setting: under B20 stands 26.1 ratio; under B21, 29.7 ratio.

The target in another assay is T2, mouse tissue factor pathway inhibitor …. Description: competitive ELISA. The source holds these as a separate data set.
Regarding B14, the variant/HC_D62R stood at 20.8 ratio.
As for B15, the variant/HC_D62R was 25.5 ratio.
Consider B16, for which the variant/HC_D62R is 9.5 ratio.
With B17, the variant/HC_D62R stood at 40 ratio.
Same read-out and setting: the figure for B19 is 14 ratio.
Take B20: the variant/HC_D62R was determined as 30.1 ratio.
In turn, B21 had a variant/HC_D62R of 42 ratio.

The next assay has the same target. As to the kind of experiment: equilibrium ELISA.
In turn, B1 registered a variant/wild-type of 2.2 ratio.
For B2, the variant/wild-type was 15.3 ratio.
B3 returned a variant/wild-type of 1.9 ratio.

A further assay has the same target. As to the kind of experiment: SPR, TFPI immobilized.
As for B14, the KD fold improvement stood at 528 fold, the Kd is 0.104 nM, the koff was 0.000468 s⁻¹ and the kon came out at 4.52e+06 M⁻¹ s⁻¹.
In turn, B15 gave a KD fold improvement of 275 fold, a Kd of 0.199 nM, a koff of 0.000185 s⁻¹ and a kon of 929000 M⁻¹ s⁻¹.
In turn, B16 returned a KD fold improvement of 299 fold, a Kd of 0.183 nM, a koff of 0.000742 s⁻¹ and a kon of 4.06e+06 M⁻¹ s⁻¹.
On the same counts, the results for B17 are 1210 fold, 0.0451 nM, 0.000315 s⁻¹ and 6.99e+06 M⁻¹ s⁻¹.
B18 yielded a KD fold improvement of 6250 fold, a Kd of 0.00875 nM, a koff of 2.36e-05 s⁻¹ and an on-rate (kon) of 2.7e+06 M⁻¹ s⁻¹.
In turn, B19 showed a KD fold improvement of 139 fold, a Kd of 0.395 nM, a koff of 0.00043 s⁻¹ and a kon of 1.09e+06 M⁻¹ s⁻¹.
Molecule B20 had a KD fold improvement of 588 fold, a Kd of 0.0931 nM, a dissociation rate constant (koff) of 0.000334 s⁻¹ and a kon of 3.59e+06 M⁻¹ s⁻¹.
As for B21, the KD fold improvement amounted to 1060 fold, the Kd came to 0.0519 nM, the koff was 0.000245 s⁻¹ and the kon was found to be 4.73e+06 M⁻¹ s⁻¹.

The Kd is the concentration at which binding is half-saturated. High values mean a looser complex, low ones a tighter complex. One may read the koff as the first-order rate constant of dissociation. The low end stands for a long-lived complex, the high end for a short-lived complex. In general, kon refers to the rate constant with which the complex forms. A low value points to slow association.
